In publication PMC13480645:

Assays:
[1] = target: SARS-CoV-2 S-2P protein (SARS-CoV-2 | bacteriophage T4)
S2P6 (human) = experiment: BLI
S2P6 (human), sequence (VH, as listed by the source, chain 1 of 2): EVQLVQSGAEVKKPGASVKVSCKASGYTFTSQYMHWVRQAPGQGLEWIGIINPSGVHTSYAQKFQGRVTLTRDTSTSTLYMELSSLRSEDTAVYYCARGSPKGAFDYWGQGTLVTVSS
S2P6 (human), sequence (VL, as listed by the source, chain 2 of 2): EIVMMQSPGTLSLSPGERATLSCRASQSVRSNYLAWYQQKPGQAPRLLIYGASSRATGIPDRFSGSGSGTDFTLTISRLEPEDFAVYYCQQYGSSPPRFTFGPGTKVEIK

S2P6 (antibody), sequence (VH): as the sequence (VH, as listed by the source, chain 1 of 2) above
S2P6 (antibody), sequence (VL): as the sequence (VL, as listed by the source, chain 2 of 2) above

Substance | IC50 of neutralisation of SARS-CoV-2 pseudovirus (HeLa-hACE2 cells) [1] | Kd (S2P6 (human)) | kon (S2P6 (human))
S2P6 (antibody) | 6.16 µg/mL | – | –
SARS-CoV-2 S-2P protein (domain or fragment) | – | 1.3 nM | 559000 M⁻¹ s⁻¹
